Earlier results on 2 substances are cited in publication PMC12378658.

Data set [1] has as its target TSLP:TSLPR complex (Homo sapiens) (UniProt Q969D9).
The next data set concerns the target TSLPR (Homo sapiens) (UniProt Q9HC73).
Sequence of UniProt Q9HC73 (Q9HC73 23-231): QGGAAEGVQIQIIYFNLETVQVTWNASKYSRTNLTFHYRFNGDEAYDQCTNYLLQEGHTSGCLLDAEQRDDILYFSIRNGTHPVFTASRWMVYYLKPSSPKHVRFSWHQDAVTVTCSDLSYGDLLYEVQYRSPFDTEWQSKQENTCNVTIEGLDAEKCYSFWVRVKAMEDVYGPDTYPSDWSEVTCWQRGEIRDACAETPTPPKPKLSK

Consider IL-7Rα (from UniProt P16871), for which the Kd – broadly, the constant that tells how readily two partners part at equilibrium – in data set [1] was 0.029 µM.
In the case of TSLP (from UniProt Q969D9), the Kd with TSLPR (Homo sapiens) was 0.032 µM.
